The record followed here is doi:10.1101/2022.09.05.506711.

In this test the target is Francisella tularensis class II fructose-1,6-bisphosphatase (Francisella tularensis). As to the kind of experiment: crystal structure.

As a reminder, the stoichiometry N is a count of units in the complex or per binding partner. For the substance “Francisella tularensis class II fructose-1,6-bisphosphatase (enzyme)”, the stoichiometry N is 4.
